Measurements: US20170174769A1
Each block holds one binder with its values, some of them ahead of it.

What was measured:
[1] = biological target: mouse KLB and mouse FGFR1c co-expressed on HEK293/mKLB/mFGFR1c/SRE-Luc cells (mouse); experiment: FACS on stable HEK293 cells, 33 nM
[2] = biological target: mouse KLB and mouse FGFR1c co-expressed on HEK293/mKLB/mFGFR1c/SRE-Luc cells (mouse); experiment: FACS on stable HEK293 cells, 965 nM
[3] = biological target: extracellular domain of human FGFR1c expressed with C-terminal V5 and hexahistidine tags (human) (UniProt P11362); experiment: SPR, mAb captured, 25 C
[4] = biological target: extracellular domain of human KLB expressed with C-terminal HA and hexahistidine tags (human) (UniProt Q86Z14); experiment: SPR, mAb captured, 25 C
[5] = biological target: extracellular domain of human FGFR1c expressed with C-terminal V5 and hexahistidine tags (human) (UniProt P11362); experiment: SPR, mAb captured, 37 C
[6] = biological target: extracellular domain of human KLB expressed with C-terminal HA and hexahistidine tags (human) (UniProt Q86Z14); experiment: SPR, mAb captured, 37 C
[7] = biological target: full-length human FGFR1c on HEK293/hFGFR1c/SRE-luc cells (human) (UniProt P11362); experiment: FACS on stable HEK293 cells
[8] = biological target: full-length human KLB on HEK293/hKLB/SRE-luc cells (human) (UniProt Q86Z14); experiment: FACS on stable HEK293 cells
[9] = biological target: human KLB and human FGFR1c co-expressed on HEK293/hKLB/hFGFR1c/SRE-luc cells (human) (UniProt Q86Z14); experiment: FACS on stable HEK293 cells
Chain of human KLB and human FGFR1c co-expressed on HEK293/hKLB/hFGFR1c/SRE-luc cells (human) (Q86Z14 whole entry, chain 1 of 2): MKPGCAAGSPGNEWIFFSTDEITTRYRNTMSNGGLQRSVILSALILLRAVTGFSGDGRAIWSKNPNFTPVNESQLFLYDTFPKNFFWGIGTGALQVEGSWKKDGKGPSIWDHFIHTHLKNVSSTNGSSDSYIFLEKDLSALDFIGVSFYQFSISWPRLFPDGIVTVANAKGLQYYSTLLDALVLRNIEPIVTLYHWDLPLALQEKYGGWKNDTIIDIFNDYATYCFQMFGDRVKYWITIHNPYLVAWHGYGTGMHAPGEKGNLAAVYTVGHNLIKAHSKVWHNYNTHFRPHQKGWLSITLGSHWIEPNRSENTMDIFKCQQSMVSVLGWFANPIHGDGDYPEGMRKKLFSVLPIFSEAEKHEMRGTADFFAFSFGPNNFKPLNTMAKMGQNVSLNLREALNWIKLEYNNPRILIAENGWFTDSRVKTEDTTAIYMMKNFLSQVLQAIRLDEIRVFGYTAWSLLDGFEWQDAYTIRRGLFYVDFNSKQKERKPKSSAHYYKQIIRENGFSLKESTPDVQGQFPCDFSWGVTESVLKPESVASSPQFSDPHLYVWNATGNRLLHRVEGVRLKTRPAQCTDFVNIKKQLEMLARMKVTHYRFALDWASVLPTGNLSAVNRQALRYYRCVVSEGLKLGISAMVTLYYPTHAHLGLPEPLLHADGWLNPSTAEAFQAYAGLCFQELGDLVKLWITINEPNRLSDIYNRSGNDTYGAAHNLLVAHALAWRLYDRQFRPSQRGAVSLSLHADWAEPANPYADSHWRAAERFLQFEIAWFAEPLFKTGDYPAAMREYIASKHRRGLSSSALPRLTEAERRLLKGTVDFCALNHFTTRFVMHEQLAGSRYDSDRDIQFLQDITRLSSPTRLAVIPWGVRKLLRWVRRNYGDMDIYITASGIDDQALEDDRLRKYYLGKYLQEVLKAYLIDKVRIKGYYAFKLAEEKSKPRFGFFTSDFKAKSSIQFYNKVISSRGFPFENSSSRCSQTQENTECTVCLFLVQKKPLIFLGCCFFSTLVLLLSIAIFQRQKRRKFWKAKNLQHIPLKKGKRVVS
Chain of human KLB and human FGFR1c co-expressed on HEK293/hKLB/hFGFR1c/SRE-luc cells (human) (chain, as listed by the source limits assumed, chain 2 of 2): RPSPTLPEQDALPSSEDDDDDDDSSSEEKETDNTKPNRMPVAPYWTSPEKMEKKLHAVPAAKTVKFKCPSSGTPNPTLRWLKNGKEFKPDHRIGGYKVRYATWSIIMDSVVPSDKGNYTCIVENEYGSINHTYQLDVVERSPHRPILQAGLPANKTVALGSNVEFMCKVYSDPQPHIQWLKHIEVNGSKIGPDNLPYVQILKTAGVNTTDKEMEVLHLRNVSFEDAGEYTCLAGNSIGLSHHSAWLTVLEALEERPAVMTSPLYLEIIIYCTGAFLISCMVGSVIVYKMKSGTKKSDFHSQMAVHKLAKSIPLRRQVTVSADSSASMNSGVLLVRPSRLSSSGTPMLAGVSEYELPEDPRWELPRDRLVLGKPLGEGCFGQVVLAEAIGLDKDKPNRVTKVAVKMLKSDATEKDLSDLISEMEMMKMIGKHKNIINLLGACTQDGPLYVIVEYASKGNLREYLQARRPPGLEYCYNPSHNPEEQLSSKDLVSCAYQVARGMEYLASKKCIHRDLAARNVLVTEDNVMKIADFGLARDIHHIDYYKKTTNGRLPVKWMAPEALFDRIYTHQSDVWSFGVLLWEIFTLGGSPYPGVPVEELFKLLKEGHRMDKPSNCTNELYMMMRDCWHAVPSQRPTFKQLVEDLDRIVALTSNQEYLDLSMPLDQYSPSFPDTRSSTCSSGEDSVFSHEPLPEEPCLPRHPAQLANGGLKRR

Chain of extracellular domain of human FGFR1c expressed with C-terminal V5 and hexahistidine tags (human) (P11362 other isoform, or with tags, fused parts or gaps limits assumed): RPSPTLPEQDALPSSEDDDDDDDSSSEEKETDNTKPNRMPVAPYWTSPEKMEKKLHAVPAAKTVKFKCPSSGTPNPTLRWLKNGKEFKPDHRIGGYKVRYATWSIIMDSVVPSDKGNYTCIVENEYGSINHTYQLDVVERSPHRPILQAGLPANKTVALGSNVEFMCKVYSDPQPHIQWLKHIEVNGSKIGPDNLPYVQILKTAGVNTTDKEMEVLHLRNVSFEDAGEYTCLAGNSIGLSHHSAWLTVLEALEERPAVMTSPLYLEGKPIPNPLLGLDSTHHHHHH
Chain of extracellular domain of human KLB expressed with C-terminal HA and hexahistidine tags (human) (Q86Z14 1-996 limits assumed): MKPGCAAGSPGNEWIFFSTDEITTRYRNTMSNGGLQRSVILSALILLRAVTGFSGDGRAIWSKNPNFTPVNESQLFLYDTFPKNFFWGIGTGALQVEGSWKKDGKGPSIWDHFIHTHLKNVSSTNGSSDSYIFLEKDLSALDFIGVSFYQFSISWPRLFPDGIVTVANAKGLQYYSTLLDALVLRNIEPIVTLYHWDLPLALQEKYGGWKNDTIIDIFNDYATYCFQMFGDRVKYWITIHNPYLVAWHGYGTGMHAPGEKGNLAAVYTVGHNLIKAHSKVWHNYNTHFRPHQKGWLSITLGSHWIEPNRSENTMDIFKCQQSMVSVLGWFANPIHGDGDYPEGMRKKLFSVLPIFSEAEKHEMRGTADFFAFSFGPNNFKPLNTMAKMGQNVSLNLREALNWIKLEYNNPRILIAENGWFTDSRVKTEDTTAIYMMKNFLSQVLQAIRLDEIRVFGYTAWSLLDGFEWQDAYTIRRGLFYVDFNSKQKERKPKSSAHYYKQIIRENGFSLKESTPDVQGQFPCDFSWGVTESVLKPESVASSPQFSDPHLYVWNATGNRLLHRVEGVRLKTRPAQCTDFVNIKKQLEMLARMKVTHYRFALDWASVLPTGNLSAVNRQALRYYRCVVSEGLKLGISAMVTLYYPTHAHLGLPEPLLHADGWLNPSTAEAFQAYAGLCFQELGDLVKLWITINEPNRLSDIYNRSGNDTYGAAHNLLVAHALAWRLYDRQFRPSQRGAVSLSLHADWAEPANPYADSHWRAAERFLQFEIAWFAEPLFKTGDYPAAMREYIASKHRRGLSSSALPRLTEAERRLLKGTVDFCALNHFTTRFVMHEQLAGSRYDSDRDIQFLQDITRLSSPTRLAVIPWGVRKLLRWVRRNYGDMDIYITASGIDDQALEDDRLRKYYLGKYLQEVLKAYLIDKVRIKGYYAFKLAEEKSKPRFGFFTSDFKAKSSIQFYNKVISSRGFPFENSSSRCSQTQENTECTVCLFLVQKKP
Chain of full-length human FGFR1c on HEK293/hFGFR1c/SRE-luc cells (human) (P11362 other isoform, or with tags, fused parts or gaps limits assumed): as the sequence (chain, as listed by the source limits assumed, chain 2 of 2) above
Chain of full-length human KLB on HEK293/hKLB/SRE-luc cells (human) (Q86Z14 whole entry): as the sequence (Q86Z14 whole entry, chain 1 of 2) above

MFI Ratio to unstained cells [1]: 1 fold
MFI Ratio to unstained cells [2]: 2 fold
B1: H1H8900P (antibody, V domains shown)
VH: QVQLVESGGGVVQPGRSLRLSCVASGFTFSSYGMHWVRQAPGKGLEWVAVISFDGSNKYYADSVKGRFTISRDNSKNTLYLQMNSLRPADTAVYYCAKDRSNYYYFGMDVWGQGTTVTVSS
VL: DIVMTQTPLSLPVTPGEPASISCRSSQSLLDSDDGNTYLDWYLQKPGQSPQLLIYTLSYRASGVPDRFSGSGSGTDFTLKISRVEAEDVGVYYCMQRIEFPLTFGGGTKVEIK

180 nM hFGFR1c-V5-6His Bind (RU) [3]: 16.4 RU
Kd [3]: 4.12 nM
koff [3]: 0.0129 s⁻¹
kon [3]: 3.13e+06 M⁻¹ s⁻¹
t1/2 [3]: 54 s
20 nM hKLB-HA-6His Bind (RU) [4]: -1.1 RU
180 nM hFGFR1c-V5-6His Bind (RU) [5]: 88.8 RU
Kd [5]: 8.76 nM
koff [5]: 0.0208 s⁻¹
kon [5]: 2.37e+06 M⁻¹ s⁻¹
t1/2 [5]: 36 s
20 nM hKLB-HA-6His Bind (RU) [6]: -1 RU
binding ratio to unstained cells [7]: 27 fold
binding ratio to unstained cells [8]: 2 fold
binding ratio to unstained cells [9]: 33 fold
B2: Comparator 3 (antibody, from another filing, V domains shown)
VH: EVQLVQSGAEVKKPGASVKVSCKVSGYTFTDYYMHWVQQAPGKGLEWMGLVDPEDGETIYAEKFQGRVTITADTSTDTAYMELSSLRSEDTAVYYCARDDYMDVWGKGTLVTVSS
VL: ETTLTQSPDTLSLSPGEGATLSCRASQSVSGSALAWYQQKPGQAPRLLIYDASSRATGVPDRFSGSGSGADFSLTISRLEPEDFAVYSCQQYGSSPLTFGPGTKVDVKR
